Measurements published in the DeepSol protein solubility set.

Experiment: soluble on expression in E. coli; label from the status in PepcDB or PDB records

Row | Sequence | soluble on expression in E. coli
1 | MRDPEFWHNKWAANQIGFHLEDVNPLLIRFWSDLAPKRSEKVLVPLCGKSEDLIWLANQHDSVQGVELSQIAVRSFFAEHFYTPTVTRLNAQHELYQFDELTLFTGDFFTAPVESVDLVYDRAALVALPEEMRAEYAQRVLQLLKPGGRILLVSMDYVQTELSGPPFSVPEAEIRTLFMGCEVRRVYQDTSIDPHLNKRTQAGLSRFAEEVWVIEKSE | not soluble
2 | MRDYVEIGMGREARRTYHLDSVAIVPSRRTRSSKDVDTTWHIDAYTFDIPFMSHPTDALATPDFVIEMDKQGGLGVINAEGLWGRHADLDAAIQEVITAYGDDELDLGSCNRATKKLQELHAAALDTELLVERIAQVRSSGAT | not soluble
3 | MREAMFYEKLDDNKVRCHICPRHCIIKEGERGFCWNRENINGVLYAVGYGKVCSLAIDPIEKKPLFHFYPTTQVVSLAIGGCNFRCLHCQNWTISQFPPDEIPYREMTPEEIVEVAIRYNCPGISYTYTEPTVYYEFMYDTSVIARENGMFNVMITNGYIEKEPLKALPVDAMNIDIKGNADFYKKVCKATLEPVLETCKLAKKLGIWVEVTNLIVPNYNDNIDDLLFIIHFVRDELGRETPLHFSRFHPDYKLTDVPPTPIETLEMARNLAIEEGLKYVYIGNVPGHEGENTYCPNCGALLIERYIFNAKIINLDVETKRCKICGEKIDIVL | not soluble
4 | MREDNQSLSHTTWNCKYHIVFAPKYRRQIIYGRYKASIGRIIRDLCERKGVIIHEANACSDHIHMLISIPPKLSVSSFMGYLKGKSSLMIFDKHANLKYKYGNRKFWCRGYYVDTVGRNQKVIAEYIQNQLQEDRVADQLTLFESVDPFTGEINKRK | not soluble
5 | MREILNHFDRPLNKKNSFQKIQNLSCQTHTKRFYREVKISCEEGGFSVLLDGCPVKTPAKRHFCLPTEVFAAFVAEEFENQKQVIDPAKMPMTRLVNTVIDGIADNMQAVFEDLLRFVACDMIFYRAQTPKELVQRQCEQWDPLLDWAEEKLGARFHVTEGLMHIEQSRESIQAVSNYLRKVESPYMLAALHTITTLTGSALIALAFSEGKIDSEHAWKIAHLDENWMMEQWGIDEETLARSSHKKSEFDAAGTIITTCLLEHHHHHH | not soluble
6 | MREIVSIHIGQAGVQIGNACWELYCLEHGITPDGLMPDDTSYGVEDQSYNTFFSETPSGKHVPRAIFVDLEPTVIDEVRTGTYAKLFHPEQLISGKEDAANNYARGHYTIGKELIDVVMDRVRRLTERCQSLQGFLIFHSFGGGTGSGFTSLVMERLSIDYGKKAKLEFSIYPAPQISTSMVEPYNSLLTTHTTLEHSDCSFIMDNEAIYEITKVNLGVRSPTYTHLNRLLAQVVSSITASLRFDGALNVDLTEFQTNLVPYPRIHFPLVTYAPIISAEKAYHEQLSVSEITNVCFEPGSQMVKCDPRNGKYMACCLLYRGDVVPKEINSAISTIKTKRAIQFVDWCPTGFKVGINYQPPTVVPGGDMAKLQRAVCMLSNTTAIQEAWARLDHKFDLMYAKRAFVHWYVGEGMEEGEFSEAREDMAALEKDYEEVGVDSFDPNDEEY | not soluble
7 | MREMKKLVKIATSLTLMGGIFVSANGVSANTDVTQKSSPNIMIEFDDVTTDHWAYDEITNLVYHRIMYGYGNGKFGTEDNITREQAAAVLHRALGLKRSVFDANPYGDISGKSTMFPYEILHLTNLGIFKGDENGNFRPKDTLTRAELAQILTKAYELKAKSPHTFTDIPEKHWARDAISALQSNKVAVGTGDGKFEPEMLVTRGQFAKFLQRSIDNSPGKME | not soluble
8 | MREPIVAIATPYGESAIGIVRLSGKGVLDLVKKFFKTKREIKPRYAHFGVLYDDKGEELDEGVLIYYKAPHSYTGEDMVELNLHGNPRILKRALELFVNAGARLAEPGEFTKRAFLNGKLDLTQAEAVAELISAKTELARKVALKQLHGELSKHIRPLRETLLELLAYVEADIEFAEEDIPTLTKEQVIQMVDKVIEGINELLKTAKTGKFIREGVKLAIVGRPNVGKSSLFNALLKEERAIVTDIAGTTRDFIEETLQIKGVPVRLVDTAGIRETKDLVERIGVERSKQKVKEADLILFVIDASQEITEEDLRIYEEIKEKDHIVVANKVDLGIRANLEKFKGEKIVKVSALKGTGLEELSEEILKKVGANLEESVNIYISVRHETLLKKAKEVLERFKEEFREKDISPEIAMLDLREASDYLGEILGEITTEDLLGKIFSTFCIGK | soluble
9 | MREQSGINGHEQLATFIDRTDRVLNLVDGFMPETAWLSDIETLTYLHATVSTHRHQVRVPETPMHLDAILADQVLTGGLEPRLGQAHLRTLTIMGFPSQTWPGLLDDLNRLAFDYRWVTRAICLDKTDAAKVLGRIRRQWFAKRKSIAAMLKEIMTNEASALMDSDAANKAVDADMALQELGSDLVGAAYVTATVTIWNDDPRIADERLRLVEKVIQGRDFTCMVERVNAVEAWLGSLPGHVYANVRQPPVSTLNLAHMMPFSAVWAGPERDEHFDAPPLFLAKTEGSTPFRFSLHVGDVGHTLVVGPTGAGKSVLLALMALQFRRYARSQIFAFDFGGSIRAAALAMRGDWHDLGGSLAEDASEPVALQPLAGIDAEEERAWAAEWVAAILAREKVEITPDVKEHVWSALNNLASAPKSERTLTGLSVLLQSQALKQALKPYCVGGPWGRLLDAETERVGSADVLAFETEGLIGTGAAAAVLAYLFHRIEHRLDGRPTLLIVDEGWLALDDEGFASQLREWLKTLRKKNASVIFATQSLADIDGSAIAPAIIESCPTRLFLPNERALEPQIATIYERFGLNDRQIEILSRATPKRDYYCQSRRGNRLFELGLGEVALAFTAASSKGDQILIARLMAEHGPTGFAKAWLEARGVAWATDLIITPQKEKLPLEHHHHHH | soluble
10 | MREVKLVTFDVWNTLLDLNIMLDEFSHQLAKISGLHIKDVANAVIEVRNEIKKMRAQASEDPRKVLTGSQEALAGKLKVDVELVKRATARAILNVDESLVLEGTKEALQFVKERGLKTAVIGNVMFWPGSYTRLLLERFGLMEFIDKTFFADEVLSYKPRKEMFEKVLNSFEVKPEESLHIGDTYAEDYQGARKVGMWAVWINQEGDKVRKLEERGFEIPSIANLKDVIELISKT | soluble
11 | MREVLYRSDIYVFGRYPMSSFIGYPGLSSSSFCTHINFFYASSCTSTARVFRKKWREIFFVLARKNFTSRAKSKIFPRHVFRDMNKEIFRTQTI | not soluble
12 | MREYKLVVLGSGGVGKSALTVQFVQGIFVDEYDPTIEDSYRKQVEVDCQQCMLEILDTAGTEQFTAMRDLYMKNGQGFALVYSITAQSTFNDLQDLREQILRVKDTEDVPMILVGNKCDLEDERVVGKEQGQNLARQWCNCAFLESSAKSKINVNEIFYDLVRQINR | soluble
13 | MRFFKHYAPSMIAKHISRLFNGKIHIHGIGEFRFKDGQLVAPTEAEREHYKMVKEINSEITRLKMAYLEHHHHHH | not soluble
14 | MRFIHALLLAGIAHSAYASEKLTFKTDLEKLEREKAAQIGVAIVDPQGEIVAGHRMAQRFAMCSTFKFPLAALVFERIDSGTERGDRKLSYGPDMIVEWSPATERFLASGHMTVLEAAQAAVQLSDNGATNLLLREIGGPAAMTQYFRKIGDSVSRLDRKEPEMGDNTPGDLRDTTTPIAMARTVAKVLYGGALTSTSTHTIERWLIGNQTGDATLRAGFPKDWVVGEKTGTCANGGRNDIGFFKAQERDYAVAVYTTAPKLSAVERDELVASVGQVITQLILSTDK | soluble
15 | MRFLHTADWQLGMTRHFLNGEAQPRYSASRREAVASLGEIAKRTGAEFVVVSGDVFEHNQLAPRDVSQSLEAMRAIGVPVYLLPGNHDPLDASSVYTSALFVAERPDNVVVLDRAGVHEVRPGVQIVAAPWRSKAPTSDLIGDVLADLPADGVTRVLVGHGGVDILDPDKNKPSLIRMAAVEDALARGAVHYVALGDKHSRTEVGGSGRVWYSGSPEVTNYDDIESDPGHVLVVDIDENDARRAVRVESEKVGRWRFVTLRRSVDTDRDIADLDLNLDLLDDKERTVVRLALTGSLTVTDKAKLDECLDRYARLFAALTTWERHTDIAVIPADGEFDDLGIGGFAAAAVDELVATARSEAAEAEDARAALGLLLRLVDRDKGAALEHHHHHH | soluble
16 | MRFNHFSIVDKNFDEQLAELDQLGFRWSVFWDEKKILKDFLIQSPSDMTALQATAELDVIEFLKSSIELDWEIFWNIALQLLDFVPNFDFEIGKAFEYAKNSNLPQIEAEMTTENIISAFYYLLCTRRKTGMILVEHWVSEGLLPLDNHYHFFNDKSLATFDSSLLEREVLWVESPVDSEQRGENDLIKIQIIRPKSTEKLPVVMTASPYHLGINDKANDLALHDMNVELEEKTSHEIHVEQKLPQKLSAKAKELPIVDKAPYRFTHGWTYSLNDYFLTRGFASIYVAGVGTRSSDGFQTSGDYQQIYSMTAVIDWLNGRARAYTSRKKTHEIKASWANGKVAMTGKSYLGTMAYGAATTGVEGLELILAEAGISSWYNYYRENGLVRSPGGFPGEDLDVLAALTYSRNLDGADFLKGNAEYEKRLAEMTAALDRKSGDYNQFWHDRNYLINTDKVKADVLIVHGLQDWNVTPEQAYNFWKALPEGHAKHAFLHRGAHIYMNSWQSIDFSETINAYFVAKLLDRDLNLNLPPVILQENSKDQVWTMMNDFGANTQIKLPLGKTAVSFAQFDNNYDDETFKKYSKDFNVFKKDLFENKANEAVIDLELPSMLTINGPVELELRLKLNDTKGFLSAQILDFGQKKRLEDKVRVKDFKVLDRGRNFMLDDLVELPLVESPYQLVTKGFTNLQNQSLLTVSDLKADEWFTIKFELQPTIYHLEKADKLRVILYSTDFEHTVRDNRKVTYEIDLSQSKLIIPIESVKN | soluble
17 | MRGFLSGEFELSSVEDAEVVIINSCGVIDFTERKIIRRMLDLKREGKKVVLAGCLTRISKEALSVADSALSPDNLDMVVDAVYSALNGRKLFTERRFIDKAEFSHLKCRLRENAIAIVSISEGCLGKCSFCATKFARGRLRSFSMDAIVREAERAVRAGYREIQLTSQDTGAYGMDKGRAMLPELLRKISEIEGEFRVRVGMMNPQHAVRMLDELINAYSSEKIYKFLHIPVQSGDNRILEDMKRNHTVEDYVEVVEAFRNSFDDVLISTDIIVGFPTETEEAFWKSYELIKETRPDIVNITRYSARKGTPAARLRDIPGWIKKERSRKLTDLMRKIGLENNKRFVGKKLRVLVTKEGKNGRNLARMNSYRAVVTEGAVGEFVEVKIKDCRFNYLIGQLAAEQPQLEHHHHHH | not soluble
18 | MRGIHRLSALLVKSASQGKYCDGAGLWLNVRKDNTRSWFFRYTYHNKRREMGLGPVAQLSLKEARELAKHYSAILREGNDPIVFREQTVLKQQSNIFSEIATAAFESKKAELKNEGKNGRWFSPLELHVIPHIGSLSIEKLTANIIRNVLAPLWHEKADTARKALNRINICLKYAAALGLDVDLQACMKARALLGKPRATSTNIPAMPWQEVPAFYQSLDDKILSNLALKLLILTGVRSYPLRYLRLEQIDKDIWTIPKENMKGIVGKVSDFRVPLSHEALKMIEKSLPFEKNGFLFAGSSGKPISDVTLSKFMKDKGFDYRPHGFRSSLRDWIAETTSTPFEIAETVLAHSVGSSVTKAYMRTDFLEQRHTLMEQWAAFITGAT | not soluble
19 | MRGIVTIDGPSASGKSSVARRVAAALGVPYLSSGLLYRAAAFLALRAGVDPGDEEGLLALLEGLGVRLLAQAEGNRVLADGEDLTSFLHTPEVDRVVSAVARLPGVRAWVNRRLKEVPPPFVAEGRDMGTAVFPEAAHKFYLTASPEVRAWRRARERPQAYEEVLRDLLRRDERDKAQSAPAPDALVLDTGGMTLDEVVAWVLAHIRR | soluble
